From paper PMC5148137 (Biochemical and biophysical research communications, 2012)

Molecular target: Cul3(1–383)-(His)6 (co-expressed) (human, UniProt Q13618 1-383)
Assay: AUC

Cul3(1–383)-(His)6 (co-expressed), sequence (Q13618 1-383): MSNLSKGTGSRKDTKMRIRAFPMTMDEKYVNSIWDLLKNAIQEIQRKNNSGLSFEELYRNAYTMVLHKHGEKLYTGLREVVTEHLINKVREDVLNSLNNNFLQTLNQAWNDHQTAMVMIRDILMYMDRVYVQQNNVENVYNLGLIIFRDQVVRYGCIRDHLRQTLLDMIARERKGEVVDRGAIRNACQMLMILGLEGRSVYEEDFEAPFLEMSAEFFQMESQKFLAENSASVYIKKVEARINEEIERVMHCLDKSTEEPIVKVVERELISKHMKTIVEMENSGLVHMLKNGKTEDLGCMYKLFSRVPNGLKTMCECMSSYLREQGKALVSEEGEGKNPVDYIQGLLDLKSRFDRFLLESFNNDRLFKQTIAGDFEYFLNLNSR

B1: MBP-KBTBD13(6–132) (domain or fragment, human, UniProt C9JR72 6-132, looked up)
chain: QTLVQVWVGGQLFQADRALLVEHCGFFRGLFRSGMRETRAAEVRLGVLSAGGFRATLQVLRGDRPALAAEDELLQAVECAAFLQAPALARFLEHNLTSDNCALLCDAAAAFGLRDVFHSAALFICDG
  stoichiometry N: 1
